Measurements published in US20220251236A1 (Boehringer Ingelheim, published 2022).

What was measured:
Human CD3 E+G HuFc-6xHis = target: T1, Human CD3 E+G HuFc-6xHis (human); experiment: SPR (ProteOn XPR36), HuCD3E_HuCD3G-Fc amine-coupled, bispecific as analyte, Example 4B
T1 construct: also called hu CD3εγ-Fc
Summary of the method: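 SPR kinetics with the bispecific constructs flowed as analyte over a directly amine-coupled (pH 4.5 acetate) human CD3εγ-Fc surface. Association runs 600 s and dissociation 1800 s, at 30 μl/min in PBS-T-EDTA.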

EGF4+5 = target: T2, EGF4+5; experiment: flow cytometry on HEK293 cells expressing the DLL3 subdomain construct, PE anti-human secondary, control: secondary antibody only
T2 construct: also called Hu DLL3 EGF4+5 on HEK293 cells
T2 membrane-anchored DLL3 subdomain construct: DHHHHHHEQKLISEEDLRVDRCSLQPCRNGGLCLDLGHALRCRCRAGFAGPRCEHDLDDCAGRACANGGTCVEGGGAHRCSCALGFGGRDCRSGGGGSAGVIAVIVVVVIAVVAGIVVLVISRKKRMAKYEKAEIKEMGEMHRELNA
Summary of the method: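 Binders tested on HEK293 cells displaying the DLL3 subdomain construct; bound molecules detected by flow cytometry using PE-conjugated anti-human secondary antibody. Negative control: cells with secondary antibody only.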

[1] = target: T3, FLAG-tagged human DLL1 full length (human, UniProt O00548 1-723); experiment: flow cytometry on HEK293 cells expressing human DLL1 (HEK293-huDLL1), PE anti-human secondary, control: secondary antibody only
T3 construct: also called human DLL1 on HEK293 cells
T3 sequence: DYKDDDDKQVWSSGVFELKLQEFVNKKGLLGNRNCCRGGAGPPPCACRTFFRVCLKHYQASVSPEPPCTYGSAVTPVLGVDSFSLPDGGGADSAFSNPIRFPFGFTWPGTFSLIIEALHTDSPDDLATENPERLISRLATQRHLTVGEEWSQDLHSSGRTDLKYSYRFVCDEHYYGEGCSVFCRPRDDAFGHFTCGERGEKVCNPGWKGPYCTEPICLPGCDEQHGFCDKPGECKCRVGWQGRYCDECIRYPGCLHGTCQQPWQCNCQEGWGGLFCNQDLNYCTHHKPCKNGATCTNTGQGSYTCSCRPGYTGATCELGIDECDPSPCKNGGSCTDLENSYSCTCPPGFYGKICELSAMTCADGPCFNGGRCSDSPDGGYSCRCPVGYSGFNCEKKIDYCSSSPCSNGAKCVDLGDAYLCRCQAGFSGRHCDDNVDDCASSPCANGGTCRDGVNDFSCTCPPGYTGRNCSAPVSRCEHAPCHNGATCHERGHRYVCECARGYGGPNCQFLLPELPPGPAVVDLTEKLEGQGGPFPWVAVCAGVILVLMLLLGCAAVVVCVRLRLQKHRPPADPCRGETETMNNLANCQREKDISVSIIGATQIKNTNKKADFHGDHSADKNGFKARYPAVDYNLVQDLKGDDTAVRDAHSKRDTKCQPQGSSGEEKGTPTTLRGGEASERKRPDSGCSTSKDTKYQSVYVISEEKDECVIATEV
Method: (§1) Bound molecules were detected with PE-conjugated anti-human secondary antibody (Sigma-Aldrich, #P8047). As negative control, cells were incubated with secondary antibody only. The samples were measured by flow-cytometry.

[2] = target: T4, trypsin inhibitor from glycine max soybean (Glycine max (soybean)); experiment: SPR (Biacore T200), trypsin inhibitor on CM5 chip, sample at 1 µM
T4 construct: also called Tryp
T4 sequence (P01070 25-205): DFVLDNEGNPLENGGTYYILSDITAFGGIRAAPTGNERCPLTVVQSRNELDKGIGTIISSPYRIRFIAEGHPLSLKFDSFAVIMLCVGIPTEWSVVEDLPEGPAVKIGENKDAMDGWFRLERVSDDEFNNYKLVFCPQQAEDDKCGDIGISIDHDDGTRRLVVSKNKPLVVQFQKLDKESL
Excerpt: To prepare the surface for the non-specific binding experiment, chicken egg white lysozyme and trypsin inhibitor from glycine max soybean were coupled manually to a series S CM5 chip with the surface density of 3000-5000 RU using the amine coupling kit according to the manufacture instructions.

[3] = target: T5, FLAG-tagged human DLL4 full length (human, UniProt Q9NR61 1-685); experiment: flow cytometry on HEK293 cells expressing human DLL4 (HEK293-huDLL4), PE anti-human secondary, control: secondary antibody only
T5 construct: also called human DLL4 on HEK293 cells
T5 sequence (Q9NR61 other isoform, or with tags, fused parts or gaps limits assumed): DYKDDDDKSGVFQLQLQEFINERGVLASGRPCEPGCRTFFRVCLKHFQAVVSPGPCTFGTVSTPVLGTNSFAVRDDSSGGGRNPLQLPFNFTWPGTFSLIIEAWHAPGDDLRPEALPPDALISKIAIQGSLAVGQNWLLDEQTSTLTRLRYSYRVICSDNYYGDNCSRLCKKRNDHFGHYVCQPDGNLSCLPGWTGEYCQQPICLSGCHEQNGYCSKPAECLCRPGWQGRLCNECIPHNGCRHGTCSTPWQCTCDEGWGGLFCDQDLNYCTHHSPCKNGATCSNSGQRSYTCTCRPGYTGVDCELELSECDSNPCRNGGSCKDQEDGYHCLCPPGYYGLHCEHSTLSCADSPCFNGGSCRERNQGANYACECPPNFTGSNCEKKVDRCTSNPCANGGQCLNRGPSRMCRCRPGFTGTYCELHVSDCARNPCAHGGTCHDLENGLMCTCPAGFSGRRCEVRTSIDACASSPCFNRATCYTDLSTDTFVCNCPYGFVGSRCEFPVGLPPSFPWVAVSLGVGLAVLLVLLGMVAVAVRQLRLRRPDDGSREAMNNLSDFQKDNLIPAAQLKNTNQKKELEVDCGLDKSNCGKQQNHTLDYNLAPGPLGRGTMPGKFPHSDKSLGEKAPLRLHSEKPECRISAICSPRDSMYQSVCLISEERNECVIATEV
Method: as §1

[4] = target: T6, human DLL3 (endogenous, on SCLC cell lines NCI-H82 and SHP77 and in SCLC tissue) (human, UniProt Q9NYJ7 27-618); experiment: flow cytometry titration on SHP77 cells, PE anti-human secondary, x-fold over background
T6 construct: whole, on cells; also called SCLC cell lines expressing DLL3
T6 sequence (looked up): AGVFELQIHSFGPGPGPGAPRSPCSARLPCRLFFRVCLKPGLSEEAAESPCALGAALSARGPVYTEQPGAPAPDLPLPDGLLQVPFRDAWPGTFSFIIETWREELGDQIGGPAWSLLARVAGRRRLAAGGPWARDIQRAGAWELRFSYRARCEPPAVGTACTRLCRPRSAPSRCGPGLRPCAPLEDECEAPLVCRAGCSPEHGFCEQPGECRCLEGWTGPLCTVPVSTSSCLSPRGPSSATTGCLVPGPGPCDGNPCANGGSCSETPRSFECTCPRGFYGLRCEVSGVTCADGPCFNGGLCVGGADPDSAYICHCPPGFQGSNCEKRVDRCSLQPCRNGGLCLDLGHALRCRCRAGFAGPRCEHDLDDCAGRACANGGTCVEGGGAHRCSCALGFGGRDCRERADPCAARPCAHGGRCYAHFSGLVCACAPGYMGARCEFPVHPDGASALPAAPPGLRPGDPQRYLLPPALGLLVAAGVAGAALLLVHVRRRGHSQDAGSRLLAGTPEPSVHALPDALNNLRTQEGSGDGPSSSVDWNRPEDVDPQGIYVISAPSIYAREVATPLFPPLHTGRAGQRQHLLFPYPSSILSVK
Excerpt: Cells (T cells or human SCLC cells) were stained with increasing concentrations of two-step purified DLL3/CD3 binding proteins with increasing concentrations in FACS buffer (PBS/0.5% BSA/0.05% sodium azide). Bound molecules were detected with PE-conjugated anti-human secondary antibody (Sigma-Aldrich, #P8047).

T1 sequence (chain, as listed by the source limits assumed): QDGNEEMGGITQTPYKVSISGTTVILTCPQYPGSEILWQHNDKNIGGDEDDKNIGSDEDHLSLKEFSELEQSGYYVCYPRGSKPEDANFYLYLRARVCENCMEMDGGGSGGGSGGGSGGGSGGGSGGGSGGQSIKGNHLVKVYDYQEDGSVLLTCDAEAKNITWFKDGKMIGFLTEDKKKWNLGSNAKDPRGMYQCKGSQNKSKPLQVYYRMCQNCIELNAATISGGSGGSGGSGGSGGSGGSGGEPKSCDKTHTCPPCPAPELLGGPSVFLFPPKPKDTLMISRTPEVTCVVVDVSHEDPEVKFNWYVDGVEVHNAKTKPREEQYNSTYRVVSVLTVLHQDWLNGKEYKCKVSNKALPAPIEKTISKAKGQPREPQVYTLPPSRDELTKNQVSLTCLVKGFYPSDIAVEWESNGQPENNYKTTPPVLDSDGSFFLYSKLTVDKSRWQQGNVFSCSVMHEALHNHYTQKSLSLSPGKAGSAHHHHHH

B1: DLL3#3/CD3#2 (bispecific antibody, human IgG1, kappa, lambda, L234A L235A)
chain 1: DIQMTQSPSAMSASVGDRVTITCRASQGISNYLVWFQQKPGKAPKRLIYAVSSLYSGVPSRFSGSGSGTEFTLTISSLQPEDFATYYCLQHDSYPYTFGQGTKLEIKRTVAAPSVFIFPPSDEQLKSGTASVVCLLNNFYPREAKVQWKVDNALQSGNSQESVTEQDSKDSTYSLSSTLTLSKADYEKHKVYACEVTHQGLSSPVTKSFNRGECGGGGSEGKSSGSGSESKSTEGKSSGSGSESKSTGGGGSQVQLVQSGAEVKKPGASVKVSCKASGYTFTSYYVHWVRQAPGQGLEWMVIINPGGGTTSYAQKFLGRVTMTRDTSTNTVYMELKSLRSEDTAVYYCARGEAVTGNYFYYGMDVWGQGTTVTVSSASTKGPSVFPLAPSSKSTSGGTAALGCLVKDYFPEPVTVSWNSGALTSGVHTFPAVLQSSGLYSLSSVVTVPSSSLGTQTYICNVNHKPSNTKVDKRVEPKSCDKTHTCPPCPAPEAAGGPSVFLFPPKPKDTLMISRTPEVTCVVVDVSHEDPEVKFNWYVDGVEVHNAKTKPREEQYNSTYRVVSVLTVLHQDWLNGKEYKCKVSNKALPAPIEKTISKAKGQPREPQVYTLPPSREEMTKNQVSLWCLVKGFYPSDIAVEWESNGQPENNYKTTPPVLDSDGSFFLYSKLTVDKSRWQQGNVFSCSVMHEALHNHYTQKSLSLSPG
chain 2: EAVVTQEPSLTVSPGGTVTLTCRSSTGAVTTSNYANWVQEKPGQLPRGLIGGTNKRAPWVPARFSGSLLGGKAALTLSGAQPEDEAEYFCALWYSNLWVFGGGTKLTVLGQPKAAPSVTLFPPSSEELQANKATLVCLISDFYPGAVKVAWKADGSPVNTGVETTTPSKQSNNKYAASSYLSLTPEQWKSHRSYSCQVTHEGSTVEKTVAPAECSGGGGSEGKSSGSGSESKSTEGKSSGSGSESKSTGGGGSEVQLVESGGGLVQPGGSLKLSCAASGFTFNTYAMNWVRQAPGKGLEWVARIRSKYINYATYYADSVKDRFTISRDDSKNTAYLQMNNLKTEDTAVYYCVRHGNFGNSYVSWFAYWGQGTLVTVSAASTKGPSVFPLAPSSKSTSGGTAALGCLVKDYFPEPVTVSWNSGALTSGVHTFPAVLQSSGLYSLSSVVTVPSSSLGTQTYICNVNHKPSNTKVDKRVEPKSCDKTHTCPPCPAPEAAGGPSVFLFPPKPKDTLMISRTPEVTCVVVDVSHEDPEVKFNWYVDGVEVHNAKTKPREEQYNSTYRVVSVLTVLHQDWLNGKEYKCKVSNKALPAPIEKTISKAKGQPREPQVYTLPPSREEMTKNQVSLSCAVKGFYPSDIAVEWESNGQPENNYKTTPPVLDSDGSFFLVSKLTVDKSRWQQGNVFSCSVMHEALHNRFTQKSLSLSPG
notes: Heterodimer of one DLL3 chain and one CD3 chain (scFab-Fc, knob-in-hole)
- Kd (Human CD3 E+G HuFc-6xHis): 7 nM
- binding result (EGF4+5): no binding (tested: 1.6 nM)
- binding result [1]: no binding (tested: 1.6 nM)
- Non-specific binding (RU) [2]: 36 RU
- binding result [3]: no binding (tested: 1.6 nM)

B2: DLL3#5/CD3#1 (bispecific antibody, human IgG1, kappa, lambda, L234A L235A)
chain 1: not shown
chain 2: EAVVTQEPSLTVSPGGTVTLTCRSSTGAVTTSNYANWVQEKPGQLPRGLIGGTNKRAPWVPARFSGSLLGGKAALTLSGAQPEDEAEYFCALWYSNLWVFGGGTKLTVLGQPKAAPSVTLFPPSSEELQANKATLVCLISDFYPGAVKVAWKADGSPVNTGVETTTPSKQSNNKYAASSYLSLTPEQWKSHRSYSCQVTHEGSTVEKTVAPAECSGGGGSEGKSSGSGSESKSTEGKSSGSGSESKSTGGGGSEVQLVESGGGLVQPGGSLKLSCAASGFTFNTYAMNWVRQAPGKGLEWVARIRSKYNNYATYYADSVKDRFTISRDDSKNTAYLQMNNLKTEDTAVYYCVRHGNFGNSYVSWFAYWGQGTLVTVSAASTKGPSVFPLAPSSKSTSGGTAALGCLVKDYFPEPVTVSWNSGALTSGVHTFPAVLQSSGLYSLSSVVTVPSSSLGTQTYICNVNHKPSNTKVDKRVEPKSCDKTHTCPPCPAPEAAGGPSVFLFPPKPKDTLMISRTPEVTCVVVDVSHEDPEVKFNWYVDGVEVHNAKTKPREEQYNSTYRVVSVLTVLHQDWLNGKEYKCKVSNKALPAPIEKTISKAKGQPREPQVYTLPPSREEMTKNQVSLSCAVKGFYPSDIAVEWESNGQPENNYKTTPPVLDSDGSFFLVSKLTVDKSRWQQGNVFSCSVMHEALHNRFTQKSLSLSPG
notes: as for B1
- Kd (Human CD3 E+G HuFc-6xHis): 3 nM
- binding result (EGF4+5): no binding (tested: 1.6 nM)
- binding result [1]: no binding (tested: 1.6 nM)
- Non-specific binding (RU) [2]: 0 RU
- binding result [3]: no binding (tested: 1.6 nM)
- EC50 (read off the curve) [4]: ~1 nM

B3: DLL3#4/CD3#1 (bispecific antibody, human IgG1, kappa, lambda, L234A L235A)
chain 1: not shown
chain 2: EAVVTQEPSLTVSPGGTVTLTCRSSTGAVTTSNYANWVQEKPGQLPRGLIGGTNKRAPWVPARFSGSLLGGKAALTLSGAQPEDEAEYFCALWYSNLWVFGGGTKLTVLGQPKAAPSVTLFPPSSEELQANKATLVCLISDFYPGAVKVAWKADGSPVNTGVETTTPSKQSNNKYAASSYLSLTPEQWKSHRSYSCQVTHEGSTVEKTVAPAECSGGGGSEGKSSGSGSESKSTEGKSSGSGSESKSTGGGGSEVQLVESGGGLVQPGGSLKLSCAASGFTFNTYAMNWVRQAPGKGLEWVARIRSKYNNYATYYADSVKDRFTISRDDSKNTAYLQMNNLKTEDTAVYYCVRHGNFGNSYVSWFAYWGQGTLVTVSAASTKGPSVFPLAPSSKSTSGGTAALGCLVKDYFPEPVTVSWNSGALTSGVHTFPAVLQSSGLYSLSSVVTVPSSSLGTQTYICNVNHKPSNTKVDKRVEPKSCDKTHTCPPCPAPEAAGGPSVFLFPPKPKDTLMISRTPEVTCVVVDVSHEDPEVKFNWYVDGVEVHNAKTKPREEQYNSTYRVVSVLTVLHQDWLNGKEYKCKVSNKALPAPIEKTISKAKGQPREPQVYTLPPSREEMTKNQVSLSCAVKGFYPSDIAVEWESNGQPENNYKTTPPVLDSDGSFFLVSKLTVDKSRWQQGNVFSCSVMHEALHNRFTQKSLSLSPG
notes: as for B1
- Kd (Human CD3 E+G HuFc-6xHis): 2 nM
- binding result [1]: no binding (tested: 1.6 nM)
- Non-specific binding (RU) [2]: 37 RU
- binding result [3]: no binding (tested: 1.6 nM)
- EC50 (read off the curve) [4]: ~0.3 nM
